Test results from a protein production outcome set (Wang et al. 2014).

Experiment: label from the status in PepcDB records

Sequence | protein production
MLINKTKRAEQNLNNLPFLALQAEQIEFLGSSAEFKTQIIELIRNAKKRIYVTALYWQKDEAGQEILDEIYRVKQENPHLDVKVLIDWHRAQRNLLGAEKSATNADWYCEQRQTYQLPDDPNMFFGVPINTREVFGVLHVKGFVFDDTVLYSGASINNVYLHQFEKYRYDRYQKITHAELADSMVNFINDYLLDFSAVYPLDVTNRPRTKEIRGNIRAYRKDLAQNGEYSLKSAVKLPNVLSVSPLFGLGASGNELNQVIEDLFLQVQKKLVICTPYFNFPRTLQHKIATLLENGKRVEIIVGDKVANDFYIPPEQPFKMAGALPYLYESNLRRFCEKFETQIESGQLVVRLWRDGDNTYHLKGVWVDDRYILLTGNNLNPRAWRLDAENGLLIYDPQQQLLAQVEKEQNQIRQHTKVLKHYTELEELNQYPEPVQKLLKKFARIKADKLVKMIL | not failed
MLIPSKLHFPRRLHNAILRQRVLDTLENAMHYKLVLFRSPAGYGKTTMAAQWLSDKDATGWYSLDESDNDEYKFAKYFVQTISNATHTELSHSKALTEKRQFASLSSLFSQVFTELISFQDEAYIVLDDYHLITNDTIHLGLKFFLKHLPDNLTLVITSRSQPPLNTANLRVRDLLIEIDNQSLAFDQSETSLFFNQRLNENIDQEAITHVREHVEGWPSALQLIALHSIQNNQSLNNSAQVMAQLNHAHLWDYLAEEVFDHLDQETQQFLMRCAVFDHFNTTLLSKVTQRKDAQLLIENLNRFGLFINTNGEQGDWYKFHNLFAEFLTHQRQNHLAHEEIDLQKYAAEAWLEHDNIYQALRHAKNAKDDILIANILTQHGWHLFNNGELSLLETTISDLRPEVLFTSPRLVIIRAWLAQSQHNYLQVNDLLSEAQREMADRNIVLDRHMQGEIDALRAQVAINKNEPEAALAFAEKALEELETNKYRSRIVATSVIGEYHHVSGNLAQALALMQQTEKMAMTYGIYHQALWAILQQSEILMAQGFMQAAFDLQDNGFKLIEDQDLHQLPLHEFLLRSRAQIYWFWFRFDEAEQCTWKGLDVLSPFDETKHLRGYSMLARLAVARGELDKAERYLDKCQQLLGQSDYHIDWKANASSAQLFYWQAKNNSEAIQYWLAQAERPETRCNHFTQLQWRNIARAQFHLGDIDTAIETLQTSQTIAQQHKLITDINRNAILAAILLYENKQIDEAVEAMHLAIKQSNQTGIIGSFLMAGRNVLKPLGKLQQKGNVTELEKHRIEQLQKALSNNERSRSAHFDETFIEKVLNTPEVPELIRTSPLTHREWQVLGLIYSGFSNEQIAAEFDVAPTTIKTHIRNLYQKLNLPNRKAAIAMADELVGMMK | failed
MLIRPTLEPDITWLPDVERSAAQAFVSWPALAWLAQGDVMDCAAHRAFVEAGGSWVAQDATGRIVGFACARLADQALHLHEISVRQEAQGQGVGRRLLQQVVDAGRCAGVRELTLTTFVDVPWNAPFYARFGFEMLQESRLCERLRGILASEHAHGLLGRCAMRLNVGL | failed
MLIVIGYAVVILAVVGSFIGLGGHLGALYQPFELTLIAGAAVGAFMAGNSRKSLGLVAKAIPEAFRSSPYSKDVYMELMALLYVLLNKARREGLMAIESHIEDPLSSPIFNEYPRIMKDAKLMEFITDYLRIMISGNMSSFEIETLMDEEIETYRHEREVPTHALQQVADALPAFGIVAAVLGVIKALAAVDQPPAILGDLISKAMVGTFLGVLLAYGFVAPMAARIERRTSESVKVLECIKVTLLASMNGYPPQLAVEFGRKVLFSAVRPSFGELEEHVRQAKSAATGRA | failed
MLIWWRGKFRRADEISLDFSLFEKSLQGAVYETLRTYSRAPFAAYKHYTRLKRSADFFNLPLSLSFDEFTKVLKAGADEFKQEVRIKVYLFPDSGEVLFVFSPLNIPDLETGVEVKISNVRRIPDLSTPPALKITGRTDIVLARREIVDCYDVILLGLNGQVCEGSFSNVFLVKEGKLITPSLDSGILDGITRENVIKLAKSLEIPVEERVVWVWELFEADEMFLTHTSAGVVPVRRLNEHSFFEEEPGPVTATLMENFEPFVLNLEENWVGI | not failed
MLIYGLARLLLFVVLTLIIHSLALLISAPVPLVMSAMLALIVAFPLSMLVFSKLRMNATQAVSQWDAQRKAHKEWVRSELADR | failed
MLKEILSSALLMLIMIDPSDKILLVSLLREDFHIEDVKSLIIRANLIGFILLLLFAVAGKIILQDIFHIELDALRVAGGFVLFKIGLEALEGGGMVTIKREKNILALAAVPVATPLIAGPAAITAAITLTAEHGIIVSIVGTLIAIAITAALMMIALYLMRGISKTALSVTIRIIGLFIMAIGAQMMITGAGGIVLNLIKGA | failed
MLKILVRLYLVIIVAYAGALLFIPDTIVGLFRDRFMAYNLDQAKGVQALIVRQFRQAPREQWPAVEQELASDFAPLELQLLRRDQAGLSDEEQARLEQGLYAVRIAEWGYYETVLAPLDKEWLIRLHSPPDPLDINVLSWGVTVLIGAAMLGCLLLWVWPHWRDLERLKETARRLGQGQMAERTHISPHSNIGELAGVFDTMASDLERHVNQQRELLNAVSHELRTPLTRLDFGLVLLFDEVPPASRKRLLELVGHVRELDELVLELLSYSRLYNADQARERVEVSLLELVDSVLGGFAEELDGRGIQWEVRAEGELPRFVLDPRLTARAVQNLVRNAMRYCDESLLLRLRLEADGACLLTVEDDGIGVPVEERERVFQPFYRLDRSRDRNTGGFGLGLAISRRAIEGQGGTLTLAQSALGGAQFRIRLPAGG | failed
MLKKGNEMKAVIVYASVHHGNTKKIEEAMASVISADVIDVTRKIKPDLSGYDVIGFVSGVYFHTFHEGIKKCIEENMSSKGQKVFLVATCGLGYRDYTKGMKDTLAKKDVLCMGSFQCRGWDTYGIFGKIGGIAKKHPNDRDLKEAQEFVLKTVCKTNNLEHHHHHH | failed
MLKKMSPSDWRPFYVSIARNMTNGIRGSIGGRLASWACLFQVTCGVAMKMPTLLSVSLLAALSLPAAAQTAPPQDVPFDGTLKIDVDATDLAHRIFKVNITMPAKPGPMTLLYPQWIPGDHSPTGPIDKLAGLVIKVDGKVVPWKRDQFDVYAFKVDVPQGATELTAEFKFLSPQAGNQGRVMMTPEMLNLQWNTTALYPAGYVVRNIKVQASVTLPAGWSYATALETDRRVGDTVSFKPIDFDDLVDSPMFAGKYYKRVELSTGKQPVYLNVFADEAKSLEAKPEQIKAHAALVQQMDKLYGARHFDHYEFLLALTKKLGGIGLEHHRSSENSGPPNYFTEWDKSWTMRDLLAHEFNHSWNGKYRRGADLSTPNFNVPMGDSLLWLYEGQTQFWGEVLAARSGLWTQDQARDMLAGVAATYERGRPGMTWRTLQDTTNDPTMSMRRSKPYRSYQMSEDYYSGAQMMWLEVDSKLRALTNNKRSIDDFAKAFFGMKNGDWDVNPYTFDDIVSTLNGVAAYDWASLLRERMDGHGSLNGGIEANGWKLVYNDEPNLAIKTYESNKNDVSLTYSLGLSLEGSGEVSEVLWDSPAFNAGIINGNSIVAVNGRAFSADVIKDAIKAAKGTAAPIELLVKRGDRYETVRIDYHGGLLYPHLERIAGKPDRLGELYKAR | failed
MLKKYIPLVARSFLAVIFIYAGVNKVFNFAQTSESMAKAGLPIVGVLLIFTIAFQILGGLSIILGYKAEIGAILLIIFLIPATIVFHNPFADPSQFNNFFKNLSIIGGLLLILAYGSGTLSLEASDRSSYVSQPEE | failed
MLKLLWIALGGSLGALCRYGLSVLARWGLPPTVPWGTLAANLVGCFLIGGLWVLAAQYSFSEELRVFIFTGGIGSLTTFSTYSLESLLLLREGRVWAGLANVLVSNVLGLVLVAIGAGCALFLLGGPVAAFGA | failed
MLKMKNNGGGCLAYISDCSVYLPVWKLKRDEISKETGMPSMGGERAVAHWDEDSITMAVEAARKFDGAFDAVIFASSSPPFRIKQCASFIASALDLPDSTFTMDITDTMRAATDALITANEFVDSGRFSRVLVVAGDKIPTKPGTLYEQLYGDAAAAVVVEKEGGAKILGYSTSTKPLPGSWMLADDDTVRDYDMRVDARYGYAASVQKAAMPLFAKLGLSPADIDRIVASAPDPKSYQGLLKAVGARPEEFYFDSVGIAGSAHPLLLLATQLEREGRILLGGYGEGADVIAVEIEQAMDSNMGRMLESRKEISYGDYLFNRGFVGVRDAPDRPSLTKFWRDEKSIIRFYGMKCKSCGTVSYPISRCCIECGAKDNYEEVRLGERGKIYTFTIDYLVMPGNYAGDGVHPHFIAVVDLDGGGRVLFELTDTLRDFSGVECDAEVERTFRLLFEKNRFRYYGWKARLPRLEHHHHHH | not failed
MLKNFNGRPSLATVLKASTVAGIAAAVLATGVPLEITRSYAEAVKVQAPAVPSFANVVDAVSPAVVSVRVENRVNPVSDNNNDGFSFDFNGRGFDDLPDDHPLKRFFKQFGQDPNDQQGHSRRFGQNGPNGGPNGPGGKGRLRPVAQGSGFFISEDGYIVTNNHVVSDGQAFVAVMNDGTELDAKLIGKDPRTDLAVLKVDGKGKKFTYVNWADDNNVRVGDWVVAVGNPFGLGGTVTAGIVSARGRDIGSGPYDDYLQVDAAVNRGNSGGPTFNLSGEVVGINTAIFSPSGGSVGIAFAIPASTARDVVADLMKDGQVSRGWLGVQIQPVTKDIAESIGLSEPSGALVVAPQAGSPGDKAGMKAGDVVTALNGETIKDARDLSRRIGAMQPGSKVELSVWRAGKAQPLTVELGTLPIDQKDASADDNSQPQQPEAPASEKALADLGLTVGPSDDGKGLAITGIDPDSDAADKGIKEGEKITSVNNQEVASPEDVVKVLNQAKKDGRTRALFQIQSNEGSRFVALPINGQG | failed
MLKNIFKISNIPAVLWGDKSEKIFIAVHGNMSNKEDAVIQIVAEEADRKGYQVLSFDLPEHGERKNDNTPCKVQFCVNELSIIMNYAKEHWKEINVFACSMGAYFSLLAFQNDVIEKALFLSPVVNMERIIENMMKWFNVTPELLQKEMTIETPIGQKLYWDYLCYVKEHPISTWNTDTYIMYGAKDELCEFETINYFTKKHRCELEVMETGEHYLHTEEQLKIFEQWLHKHID | failed
MLKQRIITALILLPIALCGFFLLEGSGFALFIGLVVSLGAWEWARLAGFEAQPARVAFAVVVAALLFLMHLVPGVAPWVLGAAVLWWALATYLVLTYPRSSEQWSGAAPKLLIGLLILLPAWQGLVFIKQLPLGNWLIMAVMVLVWGADIGAYFSGKAFGKRKLAPQVSPGKSWEGVYGGLALSLVITAVVGLVRDWTLGQMILGLLGAAIVVFISVVGDLTESMFKRQSGIKDSSNLLPGHGGVLDRIDSLTAAIPVFAVLLWMAAL | failed
MLKSGETNGVQSNVVRASSRMRGLAEPGIKDNQGRTWRRLIVTDCFISTKVWYSLYKGTLEATRKRVSDYISDLTMVEIIGLQAFTTDGGIAS | failed
MLKTPYYLIDKRALLQNLEVIRRIRERSGAKVLLALKCFATWSVFDLMREYMDGTTSSSLFEVRLGREKFGGETHAYSVAYAEDDIDDVVACADKIIFNSLSQLERYAPRASAIPRGLRLNPGISVSGYDLANPARPFSRLGETDLDRIAQAMPMIDGFMVHNNCENRDFTRFDALLTELEHRYGHLLGQINWISLGGGIHFTEPGYALDAFCDRLRRFSEQYGVQVYLEPGEAAITNTATLEVTVLDVMRNEKNLAIVDAATEAHMLDLLIYRMSARVQPDQGPHRYVIYGNSCLAGDVFGEFSFESPLQPGSRISIQDAAGYTMVKKNWFNGVRMPAIAIRELDGEIRLVREFGYQDYVDSLS | failed
MLLDGTPFARRRVTSLTSANRKGAARRTCPEAAGGPMASSAGLALCAQTLVVRGGSRFLAFSTTGSDDDCVFTYDCSTAEKKATPEDKGEDGQPADTGSDSILASTFSKSGRYFALTDDSKRLILFRTKPWQCLSARTIACQCVYFCVLDGIKCVLFRNSTRQVLSQACIEPAHCCGAVVSGSLCPLVIXAVSPDDQFVLTADRDEKIRVSWAAAPHSIESFCLGHTEFVSRILVVPSHPELLLSSSGDGTLRLWEYRSGRQLQCCDLAGLQEPGEQPGHKGLAASRIAFWGQESYVVLLCECVPVVFVFQLDASRQQLVFRQRLTFPHRVWDVVFEEARGLWVLQDCRDAPLVLWRPVGGEWQAAPDGAVSPRLCSHLRESWAMLEGSVGTDDSFRSLYKATFDNMTSYLKKKEERLQQQLKKKRQRSPFPGSPEQTKKACPGQSALSC | failed
